According to patent publication US20080113907A1, “Uses Of Galectin-2” (Charite-Universitat-Smedizin Berlin, priority 2004, published 2008):

Assays:
[1] = test system: dextran sodium sulfate induced colitis; assay: Prevention of DSS induced acute colitis, disease activity index (DAI); type: in vivo, Balb/c mice
Procedure: Colitis was induced in 8- to 10-week-old, female, Balb/c mice (Jackson Laboratories, Bar Harbor, Me.) by adding 5% DSS (Sigma Chemical Co., St. Louis, Mo.) (Dextran Sodiumsulfate (DSS) to their drinking water and allowing them to drink ad libitum. Groups of mice were treated either with 1 mg/kg BW (body weight) galectin-2 intraperitoneally or PBS 2 h before DSS administration. Mice were weighed and inspected for diarrhea and rectal bleeding. Seven days after induction of colitis by DSS, mice were killed, their entire colon was resected, and its length was measured and weighed. The disease activity index (DAI; i.e., the combined score of weight loss and bleeding) was determined according to a standard scoring system.
The disease activity index: Loss in bodyweight: 0=no loss; 1=5% to 10%; 2=10% to 15%; 3=15% to 20%; 4 ? 20%.
Hemoccult: 0=no blood; 2=positive; 4=gross blood.
In this experiment the DAI ranges from 0 to 8. The higher the DAI score the more severely the animal had been affected by colitis.
Colitis was induced in 8- to 10-week-old, female, Balb/c mice (Jackson Laboratories, Bar Harbor, Me.) by adding 5% DSS (Sigma Chemical Co., St. Louis, Mo.) (Dextran Sodiumsulfate (DSS) to their drinking water and allowing them to drink ad libitum. Groups of respectively 10 mice were treated either with Galectin-2 subcutaneously (s.c.) or intraperitoneally (i.p.) 2 h before DSS administration. In one trial with 10 mice the doses of Galectin-2 was doubled (administered i.p.) and compared to the treatment of 10 mice with Tacrolimus (FK506) (administered i.p.) in equal concentrations. In parallel a group of 10 mice was treated with 0.9% NaCl instead of Galectin-2 as control. Mice were weighed and inspected for diarrhea and rectal bleeding. 10 days after induction of colitis by DSS, mice were killed, their entire colon was resected, and its length was measured and weighed. The disease activity index (DAI; i.e., the combined score of weight loss and bleeding) was determined according to a standard scoring system.
The disease activity index: Loss in body weight: 0=no loss; 1=5% to 10%; 2=10% to 15%; 3=15% to 20%; 4 ? 20%.

[2] = test system: chronic DSS colitis; assay: Therapy of chronic DSS colitis, disease activity index (DAI); type: in vivo, Balb/c mice; conditions: control 5.3 ± 0.7
Source text: Colitis was induced in 30 8- to 10-week-old, female, Balb/c mice (Jackson Laboratories, Bar Harbor, Me.) by adding 5% DSS (Sigma Chemical Co., St. Louis, Mo.) (Dextran Sodiumsulfate (DSS) to their drinking water for the period of seven days and allowing them to drink ad libitum. At the 8th day DSS administration was stopped for another seven days. This scheme of DSS administration for seven days followed by a period of seven days pure water administration was repeated as shown in FIG. 15B. At the 29th day 20 mice were treated with Galectin-2 intraperitoneally (i.p.) parallel to DSS administration. In one trial of this treatment a group of 10 mice were treated with 2 mg/kg Galectin-2 once a day and in another trial the same total dose was distributed in two administrations for a group of ten mice, e.g. 10 mice were treated with respectively 1 mg/kg Galectin-2 twice a day. Parallel a group of 10 mice was treated with 0,9% NaCl instead of Galectin-2 as control. At the 8th day the Galectin-2 treatment was stopped. Parallel to the treatment mice were weighed and inspected for diarrhea and rectal bleeding. After stopping the treatment mice were killed, their entire colon was resected, and its length was measured and weighed. The disease activity index (DAI; i.e., the combined score of weight loss and bleeding) was determined according to a standard scoring system […]

[3] = test system: T cells; assay: Binding of biotinylated Gal-2 to T lymphocytes (flow cytometry); design: species or system human
Procedure: To measure Gal-2 binding to T lymphocytes, aliquots of cell suspensions were kept as controls or stimulated for 1, 6, 12, 24, 48, and 72 h with anti-CD3 mAb or PMA and PHA and incubated in the presence of 5 μg/ml biotin-labeled Gal-2. Cells were then harvested, washed and stained with anti-CD3-FITC mAb and APC-labeled streptavidin (Biosource) followed by flow cytofluorometric analysis. Cells cultured in the absence of biotin-labeled Gal-2 and stained with FITC-labeled mouse IgG (BD Pharmingen) or APC-labeled streptavidin served as isotype controls. Each analysis was performed on at least 20,000 events.

[4] = test system: PBT; assay: Cytokine secretion (cytometric bead array); type: cell-based, human
Procedure: To determine cytokine secretion, PBT were cultured for 48 h with or without anti-CD3 mAb and incubated in the presence or absence of 0, 10, or 50 μg/ml Gal-2. The supernatant was then collected and cytokine secretion determined by a cytometric bead array, performed according to the manufacturer's instruction (BD Pharmingen). Briefly, six bead populations with distinct fluorescence intensities, coated with capture antibodies specific for TNF-α, IFN-γ, IL-10, IL-5, IL-4, and IL-2 proteins, were mixed with PE-conjugated detection anti-bodies and incubated with recombinant standards or test sample to form sandwich complexes. Following acquisition of sample data using flow cytometry, the cytokine concentrations were calculated using the BD CBA analysis software.

B1: galectin-2: β-galactoside binding lectin, non-covalent dimer with subunits of about 14 kDa; recombinant human or rat (SEQ ID NO:1, 2) (protein)
chain: MAGELEVKNMDMKPGSTLKITGSIADGTDGFVINLGQGTDKLNLHFNPRFSESTIVCNSLDGSNWGQEQREDHLCFSPGSEVKFTVTFESDKFKVKLPDGHELTFPNRLGHSHLSYLSVRGGFNMSSFKLKE
For B1, the “DAI (disease activity index)” value ([1]; 1 mg/kg BW i.p. 2 h before DSS, seven days after induction, mean ± SD, DAI 0 to 8, control 6.3 ± 2.30) was 4.5 ± 2.1,, the “DAI (disease activity index)” value ([1]; 1 mg/kg i.p., 10 days after induction, control 6.5 ± 0.3) was 5.0 ± 0.7, and the “DAI (disease activity index)” value ([1]; 1 mg/kg s.c., 10 days after induction, control 6.5 ± 0.3) was 5.8 ± 0.7,. For the same molecule, the “DAI (disease activity index)” value ([1]; 2 mg/kg i.p., 10 days after induction, control 6.5 ± 0.3) was 2.6 ± 0.6,, the “DAI (disease activity index)” value ([2]; 1 × 2 mg/kg i.p. once a day) was 4.5 ± 0.6, and the “DAI (disease activity index)” value ([2]; 2 × 1 mg/kg i.p. twice a day) was 2.8 ± 0.3,. The “time bound to T cells” value [3] was “more than 72 hours”, the “binding to T cells after stimulation” value ([3]; PMA/PHA or anti-CD3 antibody) was “increase in cell staining” and the “binding to T cells” value ([3]; unstimulated T cells) was “bound to unstimulated T cells in a β-galactoside-specific manner”. The IFN-γ production ([4]; anti-CD3 activated T cells) was “downregulated significantly and dose-dependently”, the IL-2 secretion ([4]; anti-CD3 activated T cells) was “not influenced” and the IL-4 secretion ([4]; anti-CD3 activated T cells) was “not altered”. For the same molecule, the IL-5 secretion ([4]; anti-CD3 activated T cells) was “increasing”, the IL-10 secretion ([4]; anti-CD3 activated T cells) was “increasing” and the TNF-α production ([4]; anti-CD3 activated T cells) was “downregulated significantly and dose-dependently”. The “cytokine production of resting T cells” value ([4]; resting T cells) was “failed to modulate cytokine production of resting T cells”.
